The values that follow come from paper PMC6891901.

This series deals with T1, KH9-OEP34 (CTP) (synthetic).
T1 sequence: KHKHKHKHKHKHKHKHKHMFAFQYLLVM
The experiment in a line: free peptide quantification. The following applies: in water; N/P 0.5-5.0; value stated as up to 64%; pDNA/CTP complexes formed in water, N/P 0.1-25, agarose gel EMSA; pH, salt and temperature not given in the material. (In general: Mobility shift assays separate free from complexed probe on a gel.)

As to pPpsbA::Rluc, the binding signal (% of CTP bound (maximum)) turned out to be 64.
